The record followed here is doi:10.1101/2020.01.26.920348.

Common to all, as to test: FRET or BRET
A general note: In BRET a luciferase serves as donor, and the signal depends on an acceptor being close.

The target in test [1] is YFP-preIQ3-IQD-PCRDC (not stated (human or rat cDNA cloned) | human).
Test [2] concerns the target YFP-preIQ3-IQD-PCRDS (not stated (human or rat cDNA cloned) | mouse).
The target in test [3] is YFP-preIQ3-IQD-PCRDD (not stated (human or rat cDNA cloned)) (UniProt Q01668).
UniProt Q01668, sequence (Q01668 whole entry): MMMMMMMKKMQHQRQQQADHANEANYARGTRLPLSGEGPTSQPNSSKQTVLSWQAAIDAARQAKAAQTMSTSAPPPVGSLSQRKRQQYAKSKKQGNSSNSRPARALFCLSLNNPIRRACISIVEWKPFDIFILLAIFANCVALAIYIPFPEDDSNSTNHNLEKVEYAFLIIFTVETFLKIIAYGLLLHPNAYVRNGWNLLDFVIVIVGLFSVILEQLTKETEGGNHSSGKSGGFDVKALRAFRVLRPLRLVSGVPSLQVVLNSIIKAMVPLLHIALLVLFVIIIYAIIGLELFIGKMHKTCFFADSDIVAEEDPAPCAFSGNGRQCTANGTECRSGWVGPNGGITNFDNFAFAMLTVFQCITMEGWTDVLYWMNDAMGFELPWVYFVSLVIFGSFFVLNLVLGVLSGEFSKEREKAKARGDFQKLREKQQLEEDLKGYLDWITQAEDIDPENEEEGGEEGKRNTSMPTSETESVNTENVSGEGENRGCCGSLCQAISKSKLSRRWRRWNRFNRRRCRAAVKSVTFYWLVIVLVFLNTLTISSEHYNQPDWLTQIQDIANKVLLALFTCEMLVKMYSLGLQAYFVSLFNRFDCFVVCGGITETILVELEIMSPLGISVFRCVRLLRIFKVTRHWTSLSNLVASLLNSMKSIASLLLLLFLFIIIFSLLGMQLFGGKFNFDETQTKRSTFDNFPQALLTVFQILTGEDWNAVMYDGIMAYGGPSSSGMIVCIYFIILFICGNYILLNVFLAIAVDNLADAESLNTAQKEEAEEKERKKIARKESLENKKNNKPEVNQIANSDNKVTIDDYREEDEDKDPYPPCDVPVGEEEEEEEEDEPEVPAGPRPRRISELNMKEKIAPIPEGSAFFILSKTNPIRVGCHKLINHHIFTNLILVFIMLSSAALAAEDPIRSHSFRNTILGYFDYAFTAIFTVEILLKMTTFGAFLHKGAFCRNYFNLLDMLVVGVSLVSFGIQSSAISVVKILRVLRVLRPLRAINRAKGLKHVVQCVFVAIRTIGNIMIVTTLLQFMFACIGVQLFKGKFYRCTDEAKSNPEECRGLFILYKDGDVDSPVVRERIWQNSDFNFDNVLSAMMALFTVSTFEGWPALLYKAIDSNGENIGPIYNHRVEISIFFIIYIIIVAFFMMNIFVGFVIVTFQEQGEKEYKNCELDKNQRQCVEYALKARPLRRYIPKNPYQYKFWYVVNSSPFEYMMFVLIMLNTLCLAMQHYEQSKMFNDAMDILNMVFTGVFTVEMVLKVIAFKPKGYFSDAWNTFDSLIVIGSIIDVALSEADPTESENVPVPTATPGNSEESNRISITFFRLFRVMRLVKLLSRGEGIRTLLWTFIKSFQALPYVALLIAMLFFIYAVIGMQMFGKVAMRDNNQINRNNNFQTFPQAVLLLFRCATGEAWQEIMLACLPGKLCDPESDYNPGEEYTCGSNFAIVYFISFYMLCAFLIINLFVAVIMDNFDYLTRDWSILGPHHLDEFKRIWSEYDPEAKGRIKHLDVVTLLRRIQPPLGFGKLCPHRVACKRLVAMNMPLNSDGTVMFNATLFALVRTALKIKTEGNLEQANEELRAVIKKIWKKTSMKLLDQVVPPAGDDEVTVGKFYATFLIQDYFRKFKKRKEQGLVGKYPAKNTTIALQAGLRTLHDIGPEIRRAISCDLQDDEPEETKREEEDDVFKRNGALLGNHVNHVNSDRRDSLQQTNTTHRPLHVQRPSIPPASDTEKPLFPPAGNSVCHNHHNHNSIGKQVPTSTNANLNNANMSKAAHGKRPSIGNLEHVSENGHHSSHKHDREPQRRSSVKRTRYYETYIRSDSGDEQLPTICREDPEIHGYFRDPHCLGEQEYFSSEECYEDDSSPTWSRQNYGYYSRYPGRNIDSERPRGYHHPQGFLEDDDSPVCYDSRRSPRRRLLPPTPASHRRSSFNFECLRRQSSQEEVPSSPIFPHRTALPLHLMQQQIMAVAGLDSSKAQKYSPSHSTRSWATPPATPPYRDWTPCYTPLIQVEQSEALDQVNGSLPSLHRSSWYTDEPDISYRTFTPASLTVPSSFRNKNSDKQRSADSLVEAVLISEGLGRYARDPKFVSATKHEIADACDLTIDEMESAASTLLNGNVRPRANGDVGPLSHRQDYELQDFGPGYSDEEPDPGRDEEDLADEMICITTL

In test [1], “CFP-DCRDC (distal C-terminal regulatory domain of CaV1.2) (from UniProt Q13936 1-2221) (domain or fragment)” gave a relative Kd (normalised to Kd of PD/DF) of 11.2.

“CFP-DCRDS (distal C-terminal regulatory domain of CaV1.1) (from UniProt Q02789 1-1852) (domain or fragment)”: the relative Kd (normalised to Kd of PD/DF) in test [2] turned out to be 18.7.

With “PCRDC-DCRDF peptide (PCRD of CaV1.2 joined to DCRD of CaV1.4)”, the relative Kd (normalised to Kd of PD/DF) in test [3] was 2.3.
